Sequences and labels used below:
T1: TNFR1 (Homo sapiens, UniProt P19438)
T1 chain: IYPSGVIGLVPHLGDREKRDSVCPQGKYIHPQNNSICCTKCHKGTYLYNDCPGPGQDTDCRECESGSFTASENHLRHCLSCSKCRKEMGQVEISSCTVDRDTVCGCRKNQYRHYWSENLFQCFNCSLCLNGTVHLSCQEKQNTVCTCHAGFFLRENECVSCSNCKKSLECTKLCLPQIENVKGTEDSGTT

B1: I45E (designed binder)
chain: MTLQELLREEALRRAEAEAFRYALELLAEKFPEQKEYLLDLAEEEESQIRSLSGVDVEDVRKFLDKEWAWVKELLAEHPAELAEVEAARAARLAELRAEVEAKVAA
B2: A80Y (designed binder)
chain: MTLQELLREEALRRAEAEAFRYALELLAEKFPEQKEYLLDLAEEIESQIRSLSGVDVEDVRKFLDKEWAWVKELLAEHPYELAEVEAARAARLAELRAEVEAKVAA
B3: E77Q (designed binder)
chain: MTLQELLREEALRRAEAEAFRYALELLAEKFPEQKEYLLDLAEEIESQIRSLSGVDVEDVRKFLDKEWAWVKELLAQHPAELAEVEAARAARLAELRAEVEAKVAA
B4: E29P (designed binder)
chain: MTLQELLREEALRRAEAEAFRYALELLAPKFPEQKEYLLDLAEEIESQIRSLSGVDVEDVRKFLDKEWAWVKELLAEHPAELAEVEAARAARLAELRAEVEAKVAA
B5: D65L (designed binder)
chain: MTLQELLREEALRRAEAEAFRYALELLAEKFPEQKEYLLDLAEEIESQIRSLSGVDVEDVRKFLLKEWAWVKELLAEHPAELAEVEAARAARLAELRAEVEAKVAA
B6: V100A (designed binder)
chain: MTLQELLREEALRRAEAEAFRYALELLAEKFPEQKEYLLDLAEEIESQIRSLSGVDVEDVRKFLDKEWAWVKELLAEHPAELAEVEAARAARLAELRAEAEAKVAA
B7: V104G (designed binder)
chain: MTLQELLREEALRRAEAEAFRYALELLAEKFPEQKEYLLDLAEEIESQIRSLSGVDVEDVRKFLDKEWAWVKELLAEHPAELAEVEAARAARLAELRAEVEAKGAA
B8: E95P (designed binder)
chain: MTLQELLREEALRRAEAEAFRYALELLAEKFPEQKEYLLDLAEEIESQIRSLSGVDVEDVRKFLDKEWAWVKELLAEHPAELAEVEAARAARLAPLRAEVEAKVAA
B9: Y37M (designed binder)
chain: MTLQELLREEALRRAEAEAFRYALELLAEKFPEQKEMLLDLAEEIESQIRSLSGVDVEDVRKFLDKEWAWVKELLAEHPAELAEVEAARAARLAELRAEVEAKVAA
B10: E77K (designed binder)
chain: MTLQELLREEALRRAEAEAFRYALELLAEKFPEQKEYLLDLAEEIESQIRSLSGVDVEDVRKFLDKEWAWVKELLAKHPAELAEVEAARAARLAELRAEVEAKVAA
B11: E73C (designed binder)
chain: MTLQELLREEALRRAEAEAFRYALELLAEKFPEQKEYLLDLAEEIESQIRSLSGVDVEDVRKFLDKEWAWVKCLLAEHPAELAEVEAARAARLAELRAEVEAKVAA
B12: E9D (designed binder)
chain: MTLQELLRDEALRRAEAEAFRYALELLAEKFPEQKEYLLDLAEEIESQIRSLSGVDVEDVRKFLDKEWAWVKELLAEHPAELAEVEAARAARLAELRAEVEAKVAA
B13: A98H (designed binder)
chain: MTLQELLREEALRRAEAEAFRYALELLAEKFPEQKEYLLDLAEEIESQIRSLSGVDVEDVRKFLDKEWAWVKELLAEHPAELAEVEAARAARLAELRHEVEAKVAA
B14: K103V (designed binder)
chain: MTLQELLREEALRRAEAEAFRYALELLAEKFPEQKEYLLDLAEEIESQIRSLSGVDVEDVRKFLDKEWAWVKELLAEHPAELAEVEAARAARLAELRAEVEAVVAA
B15: D40H (designed binder)
chain: MTLQELLREEALRRAEAEAFRYALELLAEKFPEQKEYLLHLAEEIESQIRSLSGVDVEDVRKFLDKEWAWVKELLAEHPAELAEVEAARAARLAELRAEVEAKVAA
B16: K66R (designed binder)
chain: MTLQELLREEALRRAEAEAFRYALELLAEKFPEQKEYLLDLAEEIESQIRSLSGVDVEDVRKFLDREWAWVKELLAEHPAELAEVEAARAARLAELRAEVEAKVAA
B17: E95F (designed binder)
chain: MTLQELLREEALRRAEAEAFRYALELLAEKFPEQKEYLLDLAEEIESQIRSLSGVDVEDVRKFLDKEWAWVKELLAEHPAELAEVEAARAARLAFLRAEVEAKVAA
B18: R8S (designed binder)
chain: MTLQELLSEEALRRAEAEAFRYALELLAEKFPEQKEYLLDLAEEIESQIRSLSGVDVEDVRKFLDKEWAWVKELLAEHPAELAEVEAARAARLAELRAEVEAKVAA
B19: R92H (designed binder)
chain: MTLQELLREEALRRAEAEAFRYALELLAEKFPEQKEYLLDLAEEIESQIRSLSGVDVEDVRKFLDKEWAWVKELLAEHPAELAEVEAARAAHLAELRAEVEAKVAA
B20: A98K (designed binder)
chain: MTLQELLREEALRRAEAEAFRYALELLAEKFPEQKEYLLDLAEEIESQIRSLSGVDVEDVRKFLDKEWAWVKELLAEHPAELAEVEAARAARLAELRKEVEAKVAA
B21: A106W (designed binder)
chain: MTLQELLREEALRRAEAEAFRYALELLAEKFPEQKEYLLDLAEEIESQIRSLSGVDVEDVRKFLDKEWAWVKELLAEHPAELAEVEAARAARLAELRAEVEAKVAW
B22: E9K (designed binder)
chain: MTLQELLRKEALRRAEAEAFRYALELLAEKFPEQKEYLLDLAEEIESQIRSLSGVDVEDVRKFLDKEWAWVKELLAEHPAELAEVEAARAARLAELRAEVEAKVAA
B23: D59F (designed binder)
chain: MTLQELLREEALRRAEAEAFRYALELLAEKFPEQKEYLLDLAEEIESQIRSLSGVDVEFVRKFLDKEWAWVKELLAEHPAELAEVEAARAARLAELRAEVEAKVAA
B24: R61I (designed binder)
chain: MTLQELLREEALRRAEAEAFRYALELLAEKFPEQKEYLLDLAEEIESQIRSLSGVDVEDVIKFLDKEWAWVKELLAEHPAELAEVEAARAARLAELRAEVEAKVAA
B25: L96E (designed binder)
chain: MTLQELLREEALRRAEAEAFRYALELLAEKFPEQKEYLLDLAEEIESQIRSLSGVDVEDVRKFLDKEWAWVKELLAEHPAELAEVEAARAARLAEERAEVEAKVAA

For the experiment, the target named is T1, TNFR1. Nature of the experiment: yeast display SC50.
On to B1, for which the “apparent Kd (screen)” value was 1.05 nM.

For the molecule B2, the “apparent Kd (screen)” value was determined as 0.593 nM.

For the molecule B3, the “apparent Kd (screen)” value amounted to 0.593 nM.

B4: the “apparent Kd (screen)” value is 0.718 nM.

Take B5: the “apparent Kd (screen)” value stood at 0.956 nM.

Turning to B6, the “apparent Kd (screen)” value is 0.869 nM.

On to B7, for which the “apparent Kd (screen)” value turned out to be 0.653 nM.

Turning to B8, the “apparent Kd (screen)” value amounted to 0.718 nM.

Regarding B9, the “apparent Kd (screen)” value was found to be 2.25 nM.

B10: the “apparent Kd (screen)” value amounted to 0.446 nM.

B11: the “apparent Kd (screen)” value came to 0.79 nM.

For the molecule B12, the “apparent Kd (screen)” value is 0.79 nM.

B13: the “apparent Kd (screen)” value came out at 0.593 nM.

Turning to B14, the “apparent Kd (screen)” value came to 0.593 nM.

For B15, the “apparent Kd (screen)” value amounted to 7.78 nM.

In the case of B16, the “apparent Kd (screen)” value stood at 0.869 nM.

Regarding B17, the “apparent Kd (screen)” value amounted to 0.446 nM.

For the molecule B18, the “apparent Kd (screen)” value amounted to 0.653 nM.

Consider B19, for which the “apparent Kd (screen)” value is 0.869 nM.

Take B20: the “apparent Kd (screen)” value stood at 0.446 nM.

Take B21: the “apparent Kd (screen)” value came to 0.956 nM.

On to B22, for which the “apparent Kd (screen)” value was 1.86 nM.

As to B23, the “apparent Kd (screen)” value worked out at 12.5 nM.

As to B24, the “apparent Kd (screen)” value came out at 0.539 nM.

With B25, the “apparent Kd (screen)” value is 0.446 nM.

(Values after publication PMC12416549 (2024).)
